Experimental data from patent US20230303690A1 (published 2023).

T1: human LAG3 expressed on cells (human, UniProt P18627 23-525)
T1 sequence (looked up): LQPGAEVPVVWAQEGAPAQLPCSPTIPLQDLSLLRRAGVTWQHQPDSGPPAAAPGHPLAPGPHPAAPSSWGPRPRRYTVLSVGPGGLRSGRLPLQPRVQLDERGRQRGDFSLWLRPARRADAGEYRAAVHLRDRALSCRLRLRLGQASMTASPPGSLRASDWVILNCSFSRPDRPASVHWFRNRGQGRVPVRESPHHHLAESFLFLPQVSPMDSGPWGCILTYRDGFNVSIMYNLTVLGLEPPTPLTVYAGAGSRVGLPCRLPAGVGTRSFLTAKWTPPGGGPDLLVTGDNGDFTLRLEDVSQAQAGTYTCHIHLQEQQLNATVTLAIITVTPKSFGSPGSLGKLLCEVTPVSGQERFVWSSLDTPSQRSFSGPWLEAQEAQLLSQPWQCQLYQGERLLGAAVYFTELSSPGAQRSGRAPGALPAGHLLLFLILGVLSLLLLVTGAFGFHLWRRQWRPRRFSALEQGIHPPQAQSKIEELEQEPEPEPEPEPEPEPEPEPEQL


Target: T1, human LAG3 expressed on cells
Assay: cell-based or functional assay

Row | Binder | IL-2, % of BMS, at 0.005080526 ug/mL [%] | IL-2, % of BMS, at 0.015241579 ug/mL [%] | IL-2, % of BMS, at 0.045724737 ug/mL [%] | IL-2, % of BMS, at 0.137174211 ug/mL [%] | IL-2, % of BMS, at 0.411522634 ug/mL [%] | IL-2, % of BMS, at 1.234567901 ug/mL [%] | IL-2, % of BMS, at 3.703703704 ug/mL [%] | IL-2, % of BMS, at 11.11111111 ug/mL [%] | IL-2, % of BMS, at 33.33333333 ug/mL [%] | IL-2, % of BMS, at 100 ug/mL [%]
1 | combination of sdAbs 25 and 18 (other) VHH 1: QLQLVESGGGLVQAGGSLRLSCAASGSIESFSFMGWYRQAPGKQRELVAGFTGAASLSFSTYTDAVKGRFTISRDNAKNTVYLQMNSLKPEDTAVYFCNVDPWSQSWPGRYWGQGTQVTVSS VHH 2: QVQLVESGGGLVQPGGSLRLSCAASGFTLNEHAIGWFRRAPGKEREGVSCISSSDGSTYYHDSVKGRFNMSRDDAKNSVYLQMSSLKPEDTAIYYCAAALGRDCQGGQWKTSSWGQGTQVTVSS | 0 | 1.97 | 13.2 | 14.6 | 32.6 | 45.4 | 52.9 | 52.5 | 65 | 66.5
2 | combination of sdAbs 25 and 27 (other) VHH 1: QLQLVESGGGLVQAGGSLRLSCAASGSIESFSFMGWYRQAPGKQRELVAGFTGAASLSFSTYTDAVKGRFTISRDNAKNTVYLQMNSLKPEDTAVYFCNVDPWSQSWPGRYWGQGTQVTVSS VHH 2: QVQLVESGGGLVQPGGSLRLSCAASGFTLDYYAIGWFRQAPGKEREGVSCIRSSDGSTYYADSVKGRFTISSDNTKNTVYLQMNSLKPEDTAVYYCATDRYSDCRGPYENWGQGTQVTVSS | 0 | 4.21 | -1.96 | 10.8 | 39 | 51.2 | 62.3 | 69.3 | 79.8 | 83
